This is an account of results in publication PMC5777889.

Test systems include HapR (Vibrio cholerae); LeuO (Vibrio cholerae); H-NS (Vibrio cholerae).
What all share (test): EMSA
Common to all, as to conditions: buffer, room temperature

In general, Kd refers to the constant that tells how readily two partners part at equilibrium. Lower therefore signals a tighter complex. As to vieSAB promoter -198 to +70, the Kd in the series on HapR (Vibrio cholerae) is 174 nM. This counts as sub-micromolar.
For vieSAB promoter, El Tor biotype (EMSA), the Kd with LeuO (Vibrio cholerae) stood at 31.2 nM; in the series with H-NS (Vibrio cholerae) it was 52.3 nM.
On to “vieSAB promoter, classical biotype (EMSA)”, for which the Kd in the series on LeuO (Vibrio cholerae) was determined as 31.2 nM; in the series on H-NS (Vibrio cholerae), 44.1 nM.
